Test results from patent EP1113813B1.
Values joined by “and” are separate entries in the source; they are usually repeats but may differ in a detail not shown here. Equal entries are not always repeated.

Tests used:
[1] = biological target: Zot binding sites (surface receptor) on human monocytes/macrophages (CD14+) (human)
[2] = biological target: Zot binding sites (surface receptor) on human monocytes/macrophages (CD14+) (human); experiment: flow cytometry, MESF calibration, several volunteers
[3] = biological target: Zot binding sites on human T lymphocytes (CD3+) (human); experiment: as above
[4] = biological target: Zot binding sites on human T lymphocytes (CD3+) (human); experiment: real-time flow cytometry at 37°C, Zot-FITC 40 µg/ml, CD3 gate
[5] = biological target: Zot binding sites (surface receptor) on human monocytes/macrophages (CD14+) (human); experiment: real-time flow cytometry at 37°C, Zot-FITC 40 µg/ml, CD14 gate
[6] = biological target: Zot binding sites (surface receptor) on human monocytes/macrophages (CD14+) (human); experiment: flow cytometry, increasing concentrations of Zot-FITC on human PBMC
[7] = biological target: Zot binding sites on human T lymphocytes (CD3+) (human); experiment: as above
[8] = biological target: Zot binding sites (surface receptor) on human monocytes/macrophages (CD14+) (human); experiment: 4-color flow cytometry, 40 µg/ml Zot-FITC, 30 min at 37°C, CD14+ gate
[9] = biological target: Zot binding sites (surface receptor) on human monocytes/macrophages (CD14+) (human); experiment: flow cytometry, MFI converted with Quantum 26 MESF kit, saturation conditions
[10] = biological target: Zot binding sites on human T lymphocytes (CD3+) (human); experiment: as above
[11] = biological target: Zot binding sites (surface receptor) on human monocytes/macrophages (CD14+) (human); experiment: flow cytometry; […] (10 µl); […]
[12] = biological target: Zot binding sites on human T lymphocytes (CD3+) (human); experiment: flow cytometry; […] (10 µl); […]

“6xHis-Zot fusion protein (purified Zot, unlabeled) (from UniProt P38442 1-399) (ligand)” was tested, and the percent suppression of Zot-FITC mean fluorescence intensity [1] was 24% and 43%.

With “Zot-FITC (6xHis-Zot fusion protein conjugated to fluorescein isothiocyanate, Examples 4-7) (from UniProt P38442 1-399) (ligand)” the Zot binding sites/cell (mean of several volunteers) [2] was 105000 sites/cell, the Zot binding sites/cell (mean of several volunteers) [3] was 10700 sites/cell and the time to reach equilibrium [4] was < 2 min. The time to reach equilibrium [5] was < 2 min, the concentration at which saturation is reached [6] was 0.5 pM and the concentration at which saturation is reached [7] was 0.5 pM. For the same substance, the fold binding against T or B lymphocytes [8] was 5 fold and 8 fold, the Zot-binding sites/cell [9] was 106000 sites/cell and the Zot-binding sites/cell [10] was 9000 sites/cell.

“purified Zot (cleaved from MBP-Zot with Factor Xa, Example 1) (from UniProt P38442 9-399) (ligand)” gave a percent decrease of Zot-FITC binding [11] of 33% and a percent decrease of Zot-FITC binding [12] of 33%.
